# Measurements from the RNAGym collection of RNA variant scans (doi:10.7554/elife.80360).
# B1: CPEB3 Ribozyme (parent)
# chain: GGGGGCCACAGCAGAAGCGUUCACGUCGCGGCCCCUGUCAGAUUCUGGUGAAUCUGCGAAUUCUGCUGU
# Variants of: B1
# Experiment: self-cleavage, relative activity (ratio to wild type); higher = more cleavage; co-transcriptional
row,Variant,self-cleavage
1,U36A U44G,0.21
2,U36A U44A,0.177
3,C34A G65C,0.485
4,C35G U62C,0.242
5,U36A A51G,0.249
6,U36A A52C,0.24
7,C34A A42U,0.491
8,C34A A42G,0.765
9,C35G U61C,0.257
10,C35G U61G,0.296
11,C34A U67G,0.903
12,C34A U67A,0.883
13,C34A U67C,0.938
14,C35A U46C,0.275
15,C34G U36A,0.192
16,U36C U62C,0.528
17,U36C U64A,0.713
18,U36G G68U,0.338
19,U36G G68C,0.436
20,U36G G68A,0.214
21,C34G U38C,0.441
22,C34G U38G,0.202
23,U36A G50U,0.232
24,C33U C54G,0.828

row,Variant,self-cleavage
1,C33U C54A,0.868
2,C34G G50A,0.707
3,C35U A40U,0.717
4,C35U A40C,0.46
5,U36G G48U,0.196
6,C34G C57A,0.311
7,C34G C57U,0.348
8,C35U G37U,0.258
9,C35U G37C,0.22
10,U36C U43G,0.662
11,C35U A52C,1.01
12,U36C U46G,0.93
13,C34U G65U,0.824
14,C35G G68U,0.687
15,C33U G65A,0.919
16,C33U G65C,0.669
17,C34G G37C,0.213
18,C34U C66G,0.95
19,C34G A52G,0.771
20,C34G A52C,0.618
21,C35U U67A,0.95
22,U36A C66G,0.257
23,U36C U69A,0.996
24,U36G G47U,0.148

row,Variant,self-cleavage
1,U36G G50C,0.231
2,U36G G50A,0.214
3,C34A U38C,0.492
4,C34A U38G,0.232
5,C34A U38A,0.846
6,C35U G41A,0.635
7,C34A U43C,0.496
8,U36A U69G,0.347
9,C34A C54A,0.408
10,C34A C54G,0.38
11,C35U G68A,0.992
12,C35G G41A,0.294
13,C35G G41C,0.295
14,C34U U67C,1.01
15,C34U U67A,1.01
16,U36A G48A,0.269
17,U36G C57A,0.236
18,U36G C57U,0.184
19,C34U G58U,1
20,C34U G58A,0.92
21,C34U G58C,0.995
22,C34G C63A,0.424
23,C34G C63U,0.666
24,C35A C54G,0.199

row,Variant,self-cleavage
1,C35A,0.281
2,C35G,0.478
3,C35U,0.973
4,C35U U69A,0.967
5,C34U U43C,0.892
6,C34U U43A,0.967
7,C35U U44G,0.835
8,U36G A42C,0.221
9,U36G A42U,0.256
10,C34U C63A,0.869
11,C34U C63U,1
12,C35A A40C,0.288
13,C35A A40G,0.212
14,C35A A40U,0.231
15,U36A U61G,0.147
16,U36A U61A,0.137
17,C34G C39G,0.455
18,C34G C39U,0.439
19,C35U A60C,0.368
20,C35U A60U,0.395
21,C35U A60G,0.522
22,U36A G68U,0.248
23,C35G U36C,0.36
24,C35G U36A,0.21

row,Variant,self-cleavage
1,C35G U36G,0.189
2,C34U U53A,0.975
3,C35U U53C,0.897
4,C35U U53G,0.636
5,C34G G65A,0.58
6,C34U U62C,0.896
7,C34A G37C,0.262
8,U36C C57U,0.277
9,C35G U55G,0.238
10,C35G U55C,0.33
11,C35G U55A,0.267
12,U36G C54G,0.137
13,U36G C54A,0.186
14,U36A G65A,0.278
15,C34U G50U,0.987
16,C34U U61C,0.888
17,C35A C39A,0.209
18,C34G G56C,0.261
19,C34A A52U,0.664
20,C34G U69G,0.926
21,C34A A51C,0.615
22,C34A A51U,0.521
23,C34U U64A,0.974
24,C34G A42G,0.637

row,Variant,self-cleavage
1,C34G A42U,0.544
2,C34A C39A,0.346
3,U36A U49C,0.22
4,C35A G50C,0.252
5,C35A G50A,0.216
6,C34U A52G,1.01
7,C34A C45A,0.528
8,C34A C45G,0.427
9,U36C U55A,0.888
10,U36C U55C,0.74
11,U36C U55G,0.454
12,C35G G65A,0.357
13,C35G G65C,0.374
14,C35G G47A,0.477
15,C35G C54U,0.497
16,C35G C54A,0.305
17,C34G G58A,0.463
18,C34G G58C,0.654
19,C34G G58U,0.772
20,C33U C66U,0.98
21,C33U C66A,0.884
22,U36A C39G,0.15
23,U36A C39U,0.237
24,C35G U64A,0.402

row,Variant,self-cleavage
1,C33U U43C,0.939
2,U36A U43C,0.186
3,C35U C45A,0.985
4,C35U C45U,0.994
5,C33U U38A,0.913
6,U36G G65U,0.0921
7,C35U U64G,0.874
8,U36C G68U,1.01
9,U36A A59U,0.146
10,C34G G68A,0.931
11,C34U C57G,0.261
12,C34U U36A,0.228
13,C34G U43A,0.551
14,C35A U44A,0.285
15,C35A U44G,0.282
16,U36A U46C,0.186
17,C34G U53A,0.569
18,U36A C63A,0.245
19,C35U C54G,0.72
20,C35U C54U,0.929
21,C34G U46C,0.625
22,C33U G58U,0.974
23,C33U G58C,1.01
24,C33U G58A,1

row,Variant,self-cleavage
1,C34G A60G,0.407
2,C34G A60U,0.39
3,C34G A60C,0.331
4,C35A C45A,0.22
5,C35A C45U,0.261
6,C35A C45G,0.179
7,C35G U67C,0.486
8,U36A U64C,0.298
9,C35G U53A,0.407
10,U36G A60C,0.206
11,U36G A60G,0.209
12,C34A G58U,0.881
13,C34A G58C,0.556
14,C34A U44A,0.511
15,C35A U67G,0.288
16,C35A U67A,0.239
17,U36A A42G,0.355
18,C35G G48C,0.531
19,C34A C35A,0.275
20,U36C U38C,0.631
21,U36C U38A,0.376
22,C35U C39U,0.85
23,C35G G50C,0.401
24,C34U C45A,0.946

row,Variant,self-cleavage
1,C34A G50C,0.773
2,C34A G50A,0.822
3,C35A C57A,0.218
4,C35A C57G,0.192
5,U36C U67A,0.926
6,U36C U67C,0.981
7,C34A U61G,0.426
8,C33U C57G,0.247
9,C33U C57A,0.323
10,C35G U38C,0.286
11,U36C G58C,0.834
12,U36C G58A,0.731
13,U36C G37A,0.335
14,C35A U36A,0.198
15,C34U U55C,0.823
16,C35U C57U,0.373
17,C35U C57G,0.302
18,C34A U46A,0.848
19,C34A U46C,0.829
20,U36A G58A,0.205
21,C35G U49G,0.373
22,C35G U49A,0.444
23,C35A G58C,0.25
24,C35A G58A,0.196

row,Variant,self-cleavage
1,C33U C45U,0.976
2,C35A U38G,0.291
3,U36G C63A,0.147
4,C35U G50U,0.94
5,C35G C57U,0.287
6,C35U U43G,0.753
7,C35A G65C,0.191
8,U36A U53C,0.181
9,U36A U62C,0.314
10,U36C U61G,0.601
11,C33U U55G,0.8
12,C33U U55C,0.685
13,C35A G68A,0.358
14,C35A G41C,0.237
15,C35G A59C,0.307
16,C35G A59G,0.488
17,C34U G37A,0.224
18,C34U G48C,0.974
19,C34U G48A,0.986
20,U36C A51G,0.914
21,C35G C63U,0.47
22,C35G C63G,0.361
23,C34A U55A,0.529
24,C34A G56A,0.562

row,Variant,self-cleavage
1,C34A G48A,0.862
2,U36C A52G,0.855
3,C34A U69C,0.992
4,U36G G56C,0.284
5,C34A A40C,0.291
6,U36G A51U,0.117
7,U36G A51G,0.179
8,U36G A51C,0.25
9,C34G U61A,0.458
10,C34G U61G,0.311
11,C35G U44G,0.373
12,C33U G37U,0.245
13,C34A U64G,0.629
14,C34G U55A,0.386
15,C34G U55G,0.475
16,C34G U55C,0.327
17,C33U U62C,0.847
18,C33U U62G,0.845
19,C33U U62A,0.956
20,C35U U61C,0.625
21,C34G A59C,0.291
22,C35A C63U,0.251
23,C35A C63G,0.22
24,C35U U49A,0.969

row,Variant,self-cleavage
1,C34A A59C,0.302
2,C35A A52U,0.274
3,C34A U49G,0.865
4,C33U G68A,1.01
5,C33U G68U,1.02
6,C34G U44A,0.579
7,C35U C66G,0.813
8,C35U C66U,0.905
9,U36C G65U,0.485
10,C33U G50U,1
11,C34U G68U,1.04
12,U36G A40U,0.259
13,C35G A42C,0.308
14,U36C G50A,0.948
15,U36C G50U,0.893
16,C33U U67C,0.971
17,C35A A51U,0.223
18,C35A U69G,0.356
19,U36A G41A,0.146
20,C35U U62C,0.752
21,C33U G41A,0.827
22,U36C C45U,0.926
23,C35A U61C,0.27
24,C35A G48C,0.281

row,Variant,self-cleavage
1,C35A G48A,0.248
2,C35G C39G,0.343
3,C35G C39U,0.263
4,U36C C66U,0.891
5,U36C C39A,0.474
6,U36C C39U,0.732
7,C34U G41C,0.729
8,C34U G41U,0.901
9,C35G U46A,0.618
10,C35G U46G,0.335
11,U36A C54A,0.2
12,U36A C54G,0.215
13,U36A G37U,0.259
14,U36A G37C,0.198
15,U36A G37A,0.213
16,U36G G58U,0.193
17,C33U U36A,0.218
18,C34U U38C,0.962
19,C34U U38A,0.935
20,C34U U38G,0.227
21,U36G C45U,0.232
22,U36A G56A,0.231
23,C34G C66U,0.643
24,C34G C66A,0.411

row,Variant,self-cleavage
1,C35A A60U,0.181
2,C33U U44C,0.938
3,C33U U44A,1.01
4,C35U U55A,0.82
5,U36C,0.939
6,U36A,0.25
7,U36G,0.239
8,C35G C66G,0.437
9,U36A A40U,0.191
10,C35G A52G,0.458
11,U36C C63U,0.856
12,C35U G65C,0.568
13,C34U A59U,0.778
14,U36A C45U,0.325
15,C34A U36G,0.316
16,C34A U36C,0.568
17,C35G G58A,0.243
18,C34A C66A,0.634
19,C34A A60C,0.313
20,C34A A60U,0.292
21,C34A A60G,0.44
22,C34G U67A,0.847
